To fix the notation:
B1: PpAAT1 (Prunus persica; K298F) (protein)
chain: MGSLCPLLFPVNRFEPELITPAKPTPIETKQLSDIDDQDGLRFHFPVIISYKNNPSMKGNDAVMVIREALSRALVYYYPLAGRLREGPNRKLMVECNGEGVLFIEANADVTLEQLGDRILPPCPVLEEFLSNPPGSDGILGCPLLLVQVTRLTCGGFIFGLRINHAMCDAVGLAKFLNAIGEMAQGADSLSVPPVWARELLNARDPPTVTRWHYEYDQLLDSQGSFIAAIDQSNMAQRSFYFGPQQIRALRKHLPPHLSTCSSFELITACVWRCRTLSLRLNPKDTVRISCAVNARGFSINDLCLPSGFYGNAFSIPTAVSTVELLCASPLGYGVELVRKSKAQMDKEYMQSLADFFVIRGRPPLPMGWNVFIVSDNRHTGFGEFDVGWGRPLFAGLARAFSMISFYVRDNNQEEEFGTLVPICLPSTSLERFEEELKKMTLEHVEEISK
notes: codon-optimised, C-terminal polyhistidine tag, pET-30a(+), expressed in E. coli, purified; HxxxD motif HAMCD at H165-D169
B2: PpAAT1 (Prunus persica; R339V) (protein)
chain: B1 chain with F298K, R339V
notes: as for B1
B3: PpAAT1 (Prunus persica; A170S) (protein)
chain: B1 chain with A170S, F298K
notes: as for B1
B4: PpAAT1 (Prunus persica; F314Y) (protein)
chain: B1 chain with F298K, F314Y
notes: as for B1
B5: PpAAT1 (Prunus persica) (protein)
chain: B1 chain with F298K
notes: as for B1
B6: PpAAT1 (Prunus persica; A174S) (protein)
chain: B1 chain with A174S, F298K
notes: as for B1
B7: PpAAT1 (Prunus persica; H379V) (protein)
chain: B1 chain with F298K, H379V
notes: as for B1
B8: PpAAT1 (Prunus persica; K342F) (protein)
chain: B1 chain with F298K, K342F
notes: as for B1
B9: PpAAT1 (Prunus persica; F264Y) (protein)
chain: B1 chain with F264Y, F298K
notes: as for B1
B10: PpAAT1 (Prunus persica; S262A) (protein)
chain: B1 chain with S262A, F298K
notes: as for B1
B11: PpAAT1 (Prunus persica; F382Y) (protein)
chain: B1 chain with F298K, F382Y
notes: as for B1

Positions count from the first letter of the chain named. Numbers in names are those of the source.

The text below walks through data of PMC7847995, “Site-directed mutagenesis identified the key active site residues of alcohol acyltransferase PpAAT1 responsible for aroma biosynthesis in peach fruits” (Horticulture Research, 2021).

T1 sequence (M5WU76 entry or part of it): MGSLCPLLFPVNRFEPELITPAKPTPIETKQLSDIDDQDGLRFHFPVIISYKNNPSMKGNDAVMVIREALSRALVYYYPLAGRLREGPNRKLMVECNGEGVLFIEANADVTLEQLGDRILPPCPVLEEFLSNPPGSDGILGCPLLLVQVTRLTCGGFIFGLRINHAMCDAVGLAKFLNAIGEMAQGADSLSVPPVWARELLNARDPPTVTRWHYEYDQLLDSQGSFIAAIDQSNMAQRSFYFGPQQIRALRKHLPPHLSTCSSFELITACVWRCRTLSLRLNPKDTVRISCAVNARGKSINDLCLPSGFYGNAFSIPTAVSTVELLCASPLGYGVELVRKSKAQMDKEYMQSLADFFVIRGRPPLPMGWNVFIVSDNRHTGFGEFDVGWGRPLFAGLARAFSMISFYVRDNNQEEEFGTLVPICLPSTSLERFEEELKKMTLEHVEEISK

Substrate in the first series: CCCCCCC(O)CCC(=O)SCCNC(=O)CCNC(=O)[C@H](O)C(C)(C)COP(=O)(O)OP(=O)(O)OC[C@H]1O[C@@H](n2cnc3c(N)ncnc32)[C@H](O)[C@@H]1OP(=O)(O)O
Put plainly: GC-MS of gamma-decalactone formation. The settings on record: internal esterification to gamma-decalactone; ±SE, n = 3. The format is biochemical, Prunus persica. The source says:
GC-MS of gamma-decalactone formation on PpAAT1
Consider B1, for which the Km is reported as 10.1014 (±1.4928) mM, the catalytic constant (kcat) was determined as 0.451 ± 0.0624 s⁻¹ and the kcat/Km was 44.1 ± 7.9 M⁻¹ s⁻¹.
The corresponding values for B2 are 8.8556 (±1.4954) mM, 0.322 ± 0.0547 s⁻¹ and 36.3 ± 5.1 M⁻¹ s⁻¹.
Turning to B3, the Km is 4.5852 (±0.6923) mM, the turnover number (kcat) is 1.28 ± 0.1 s⁻¹ and the kcat/Km was found to be 278 ± 19.4 M⁻¹ s⁻¹.
For the molecule B4, the Km is reported as 4.2018 (±0.5997) mM, the kcat was determined as 1.11 ± 0.119 s⁻¹ and the kcat/Km was determined as 265 ± 31.1 M⁻¹ s⁻¹.
The corresponding values for B5 are 2.6187 (±0.2511) mM, 2.72 ± 0.146 s⁻¹ and 1040 ± 91.6 M⁻¹ s⁻¹.
The corresponding values for B6 are 9.1599 (±1.0952) mM, 0.399 ± 0.048 s⁻¹ and 43.6 ± 6.9 M⁻¹ s⁻¹.
The corresponding values for B7 are 8.2152 (±0.9510) mM, 0.362 ± 0.0249 s⁻¹ and 44.1 ± 3.6 M⁻¹ s⁻¹.
As to B8, the Km is 5.0532 (±0.3364) mM, the turnover number (kcat) came to 1.32 ± 0.0927 s⁻¹ and the kcat/Km came out at 262 ± 74.2 M⁻¹ s⁻¹.
Take B9: the Km was 3.0241 (±0.5145) mM, the kcat came to 2.53 ± 0.287 s⁻¹ and the kcat/Km worked out at 836 ± 122 M⁻¹ s⁻¹.
For B10 the same measures were 2.9920 (±0.3836) mM, 2.36 ± 0.364 s⁻¹ and 790 ± 190 M⁻¹ s⁻¹.
The corresponding values for B11 are 9.0224 (±0.7366) mM, 0.373 ± 0.0138 s⁻¹ and 41.3 ± 2.7 M⁻¹ s⁻¹.

The next series has as its target T1, PpAAT1 (Prunus persica, UniProt M5WU76).
T1 construct: gene AAT1; codon-optimised, C-terminal polyhistidine tag, pET-30a(+), expressed in E. coli, purified; HxxxD motif HAMCD at H165-D169
Put plainly: esterification assay. Format: biochemical. The settings on record: co-substrate acetyl-CoA; product decyl acetate.
As to `CCCCCCCCCCO` [decanol], the Kcat/Km result was “acetyl–CoA and four different alcohols (propanol, hexanol, benzyl alcohol, and decanol)”.

Staying with this series, now noted: co-substrate acetyl-CoA; product hexyl acetate.
In the case of `CCCCCCO` [hexanol], the Kcat/Km result was “a higher Kcat/Km ratio was observed in all substitutions when hexanol was used as the substrate”.

Still in this series, the particulars now being: co-substrate acetyl-CoA; product phenylmethyl acetate.
On to `OCc1ccccc1` [benzyl alcohol], for which the Kcat/Km result was “acetyl–CoA and four different alcohols (propanol, hexanol, benzyl alcohol, and decanol)”.

The series is the same for the next values; noted with them: co-substrate acetyl-CoA; product propyl acetate.
Regarding `CCCO` [propanol], the Kcat/Km result was “acetyl–CoA and four different alcohols (propanol, hexanol, benzyl alcohol, and decanol)”.

For orientation: kcat means the maximal rate divided by the concentration of active sites. For orientation: kcat/Km means the turnover number divided by the Michaelis constant.
